# *1 amine or outer side, *2 acyl side, *3 side chain or, on linkers, in order; H or OH if unused. Bridges are numbered along the chain shown (N, C = ends). [ ]: non-standard residue; d: D form. Pro(trans-4-NH2) = O=C([C@@H]1C[C@@H](N[*:3])CN1[*:1])[*:2]; Phe(4-CF3) = N[C@@H](Cc1ccc(C(F)(F)F)cc1)C(=O)O; Trp(5-OH) = N[C@@H](Cc1c[nH]c2ccc(O)cc12)C(=O)O; Oic = O=C(O)[C@@H]1C[C@@H]2CCCC[C@@H]2N1; Pro(4S-NH2) = N[C@@H]1CN[C@H](C(=O)O)C1; d(cisHyp) = O=C(O)[C@H]1C[C@@H](O)CN1; Hyp = O=C(O)[C@@H]1C[C@@H](O)CN1; Tic = O=C(O)[C@@H]1Cc2ccccc2CN1; Pip = O=C(O)[C@@H]1CCCCN1; Dab = NCC[C@H](N)C(=O)O; Dap = NC[C@H](N)C(=O)O
# T1: Formyl-Peptide Receptor 1 (UniProt P21462 1-350, limits assumed)
# T1 sequence (looked up): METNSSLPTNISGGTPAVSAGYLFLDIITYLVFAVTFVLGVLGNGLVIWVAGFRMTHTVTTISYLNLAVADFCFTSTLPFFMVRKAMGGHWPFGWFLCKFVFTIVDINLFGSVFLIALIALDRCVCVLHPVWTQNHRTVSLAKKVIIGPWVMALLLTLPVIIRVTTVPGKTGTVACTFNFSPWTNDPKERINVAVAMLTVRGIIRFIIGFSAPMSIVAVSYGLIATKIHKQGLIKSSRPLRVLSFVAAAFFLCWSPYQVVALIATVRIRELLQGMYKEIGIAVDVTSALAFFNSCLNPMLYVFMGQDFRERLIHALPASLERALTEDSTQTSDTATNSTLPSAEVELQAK
# B1: cyclo(-Tyr-His-Ala-Cys-His-Gly-^DPro-Trp-Thr-Ile-Cys-Tyr-Gln-Lys-^DPro-Trp-) (peptide)
# peptide: cyclo(YHACHG[dP]WTICYQK[dP]W)
# modifications: disulfide 4-11
# SMILES: CC[C@H](C)[C@@H]1NC(=O)[C@H]([C@@H](C)O)NC(=O)[C@H](Cc2c[nH]c3ccccc23)NC(=O)[C@H]2CCCN2C(=O)CNC(=O)[C@H](Cc2c[nH]cn2)NC(=O)[C@@H]2CSSC[C@H](NC1=O)C(=O)N[C@@H](Cc1ccc(O)cc1)C(=O)N[C@@H](CCC(N)=O)C(=O)N[C@@H](CCCCN)C(=O)N1CCC[C@@H]1C(=O)N[C@@H](Cc1c[nH]c3ccccc13)C(=O)N[C@@H](Cc1ccc(O)cc1)C(=O)N[C@@H](Cc1c[nH]cn1)C(=O)N[C@@H](C)C(=O)N2
# B2: cyclo(-Tyr-His-Lys-Cys-His-Gly-^DPro-Phe(4CF3)-Thr-Ile-Cys-Tyr-Glu-Lys-^DPro-Pro-) (peptide)
# peptide: cyclo(YHKCHG[dP][Phe(4-CF3)]TICYEK[dP]P)
# modifications: disulfide 4-11
# SMILES: CC[C@H](C)[C@@H]1NC(=O)[C@H]([C@@H](C)O)NC(=O)[C@H](Cc2ccc(C(F)(F)F)cc2)NC(=O)[C@H]2CCCN2C(=O)CNC(=O)[C@H](Cc2c[nH]cn2)NC(=O)[C@@H]2CSSC[C@H](NC1=O)C(=O)N[C@@H](Cc1ccc(O)cc1)C(=O)N[C@@H](CCC(=O)O)C(=O)N[C@@H](CCCCN)C(=O)N1CCC[C@@H]1C(=O)N1CCC[C@H]1C(=O)N[C@@H](Cc1ccc(O)cc1)C(=O)N[C@@H](Cc1c[nH]cn1)C(=O)N[C@@H](CCCCN)C(=O)N2
# B3: cyclo(-Tyr-His-Lys-Cys-His-Gly-^DPro-Trp-Thr-Ile-Cys-Tyr-Glu-Lys-^DPro-Lys-) (peptide)
# peptide: cyclo(YHKCHG[dP]WTICYEK[dP]K)
# modifications: disulfide 4-11
# SMILES: CC[C@H](C)[C@@H]1NC(=O)[C@H]([C@@H](C)O)NC(=O)[C@H](Cc2c[nH]c3ccccc23)NC(=O)[C@H]2CCCN2C(=O)CNC(=O)[C@H](Cc2c[nH]cn2)NC(=O)[C@@H]2CSSC[C@H](NC1=O)C(=O)N[C@@H](Cc1ccc(O)cc1)C(=O)N[C@@H](CCC(=O)O)C(=O)N[C@@H](CCCCN)C(=O)N1CCC[C@@H]1C(=O)N[C@@H](CCCCN)C(=O)N[C@@H](Cc1ccc(O)cc1)C(=O)N[C@@H](Cc1c[nH]cn1)C(=O)N[C@@H](CCCCN)C(=O)N2
# B4: cyclo(-Tyr-His-Lys-Cys-His-Gly-^DPro-Trp-Thr-Ile-Cys-Tyr-Glu-Lys-^DPro-Pro((4R)NH2)-) (peptide)
# peptide: cyclo(YHKCHG[dP]WTICYEK[dP][Pro(trans-4-NH2)])
# modifications: disulfide 4-11
# SMILES: CC[C@H](C)[C@@H]1NC(=O)[C@H]([C@@H](C)O)NC(=O)[C@H](Cc2c[nH]c3ccccc23)NC(=O)[C@H]2CCCN2C(=O)CNC(=O)[C@H](Cc2c[nH]cn2)NC(=O)[C@@H]2CSSC[C@H](NC1=O)C(=O)N[C@@H](Cc1ccc(O)cc1)C(=O)N[C@@H](CCC(=O)O)C(=O)N[C@@H](CCCCN)C(=O)N1CCC[C@@H]1C(=O)N1C[C@H](N)C[C@H]1C(=O)N[C@@H](Cc1ccc(O)cc1)C(=O)N[C@@H](Cc1c[nH]cn1)C(=O)N[C@@H](CCCCN)C(=O)N2
# B5: cyclo(-Tyr-His-Lys-Cys-His-Gly-^DPro-Trp-Thr-Ile-Cys-Tyr-Glu-Lys-^DPro-Dab-) (peptide)
# peptide: cyclo(YHKCHG[dP]WTICYEK[dP][Dab])
# modifications: disulfide 4-11
# SMILES: CC[C@H](C)[C@@H]1NC(=O)[C@H]([C@@H](C)O)NC(=O)[C@H](Cc2c[nH]c3ccccc23)NC(=O)[C@H]2CCCN2C(=O)CNC(=O)[C@H](Cc2c[nH]cn2)NC(=O)[C@@H]2CSSC[C@H](NC1=O)C(=O)N[C@@H](Cc1ccc(O)cc1)C(=O)N[C@@H](CCC(=O)O)C(=O)N[C@@H](CCCCN)C(=O)N1CCC[C@@H]1C(=O)N[C@@H](CCN)C(=O)N[C@@H](Cc1ccc(O)cc1)C(=O)N[C@@H](Cc1c[nH]cn1)C(=O)N[C@@H](CCCCN)C(=O)N2
# B6: cyclo(-Tyr-His-Ile-Cys-His-Gly-^DPro-Trp-Thr-Ile-Cys-Tyr-Glu-Lys-^DPro-Pro-) (peptide)
# peptide: cyclo(YHICHG[dP]WTICYEK[dP]P)
# modifications: disulfide 4-11
# SMILES: CC[C@H](C)[C@@H]1NC(=O)[C@H](Cc2c[nH]cn2)NC(=O)[C@H](Cc2ccc(O)cc2)NC(=O)[C@@H]2CCCN2C(=O)[C@H]2CCCN2C(=O)[C@H](CCCCN)NC(=O)[C@H](CCC(=O)O)NC(=O)[C@H](Cc2ccc(O)cc2)NC(=O)[C@@H]2CSSC[C@H](NC1=O)C(=O)N[C@@H](Cc1c[nH]cn1)C(=O)NCC(=O)N1CCC[C@@H]1C(=O)N[C@@H](Cc1c[nH]c3ccccc13)C(=O)N[C@@H]([C@@H](C)O)C(=O)N[C@@H]([C@@H](C)CC)C(=O)N2
# B7: cyclo(-Tyr-His-Ala-Cys-Trp-Gly-^DPro-Trp-Thr-Ile-Cys-Tyr-Gln-Lys-^DPro-Ala-) (peptide)
# peptide: cyclo(YHACWG[dP]WTICYQK[dP]A)
# modifications: disulfide 4-11
# SMILES: CC[C@H](C)[C@@H]1NC(=O)[C@H]([C@@H](C)O)NC(=O)[C@H](Cc2c[nH]c3ccccc23)NC(=O)[C@H]2CCCN2C(=O)CNC(=O)[C@H](Cc2c[nH]c3ccccc23)NC(=O)[C@@H]2CSSC[C@H](NC1=O)C(=O)N[C@@H](Cc1ccc(O)cc1)C(=O)N[C@@H](CCC(N)=O)C(=O)N[C@@H](CCCCN)C(=O)N1CCC[C@@H]1C(=O)N[C@@H](C)C(=O)N[C@@H](Cc1ccc(O)cc1)C(=O)N[C@@H](Cc1c[nH]cn1)C(=O)N[C@@H](C)C(=O)N2
# B8: cyclo(-Tyr-His-Lys-Cys-His-Gly-^DPro-Trp-Thr-Val-Cys-Tyr-Glu-Lys-^DPro-Pro-) (peptide)
# peptide: cyclo(YHKCHG[dP]WTVCYEK[dP]P)
# modifications: disulfide 4-11
# SMILES: CC(C)[C@@H]1NC(=O)[C@H]([C@@H](C)O)NC(=O)[C@H](Cc2c[nH]c3ccccc23)NC(=O)[C@H]2CCCN2C(=O)CNC(=O)[C@H](Cc2c[nH]cn2)NC(=O)[C@@H]2CSSC[C@H](NC1=O)C(=O)N[C@@H](Cc1ccc(O)cc1)C(=O)N[C@@H](CCC(=O)O)C(=O)N[C@@H](CCCCN)C(=O)N1CCC[C@@H]1C(=O)N1CCC[C@H]1C(=O)N[C@@H](Cc1ccc(O)cc1)C(=O)N[C@@H](Cc1c[nH]cn1)C(=O)N[C@@H](CCCCN)C(=O)N2
# B9: cyclo(-Tyr-His-Lys-Cys-Trp-Gly-^DPro-Trp-Thr-Ile-Cys-Tyr-Glu-Lys-^DPro-Lys-) (peptide)
# peptide: cyclo(YHKCWG[dP]WTICYEK[dP]K)
# modifications: disulfide 4-11
# SMILES: CC[C@H](C)[C@@H]1NC(=O)[C@H]([C@@H](C)O)NC(=O)[C@H](Cc2c[nH]c3ccccc23)NC(=O)[C@H]2CCCN2C(=O)CNC(=O)[C@H](Cc2c[nH]c3ccccc23)NC(=O)[C@@H]2CSSC[C@H](NC1=O)C(=O)N[C@@H](Cc1ccc(O)cc1)C(=O)N[C@@H](CCC(=O)O)C(=O)N[C@@H](CCCCN)C(=O)N1CCC[C@@H]1C(=O)N[C@@H](CCCCN)C(=O)N[C@@H](Cc1ccc(O)cc1)C(=O)N[C@@H](Cc1c[nH]cn1)C(=O)N[C@@H](CCCCN)C(=O)N2
# Target: T1, Formyl-Peptide Receptor 1
# Experiment: cell-based or functional assay
binder,measurement,value
cyclo(YH[Dab]CWG[dP]WTICYEK[dP]P) (disulfide 4-11) [cyclo(-Tyr-His-Dab-Cys-Trp-Gly-^DPro-Trp-Thr-Ile-Cys-Tyr-Glu-Lys-^DPro-Pro-)],β-Arrestin IC50,93 nM
cyclo(YHKC[Trp(5-OH)]G[dP]WTICYEK[dP]P) (disulfide 4-11) [cyclo(-Tyr-His-Lys-Cys-Trp(5OH)-Gly-^DPro-Trp-Thr-Ile-Cys-Tyr-Glu-Lys-^DPro-Pro-)],β-Arrestin IC50,13 nM
cyclo(YH[Dab]CHG[dP]WTICYEK[dP]P) (disulfide 4-11) [cyclo(-Tyr-His-Dab-Cys-His-Gly-^DPro-Trp-Thr-Ile-Cys-Tyr-Glu-Lys-^DPro-Pro-)],β-Arrestin IC50,290 nM
B1,β-Arrestin IC50,147 nM
B2,β-Arrestin IC50,114 nM
cyclo(YH[Dap]CHG[dP]WTICYEK[dP]P) (disulfide 4-11) [cyclo(-Tyr-His-Dap-Cys-His-Gly-^DPro-Trp-Thr-Ile-Cys-Tyr-Glu-Lys-^DPro-Pro-)],β-Arrestin IC50,271 nM
cyclo(YHKCHG[dP]WTICYEK[dP][Pip]) (disulfide 4-11) [cyclo(-Tyr-His-Lys-Cys-His-Gly-^DPro-Trp-Thr-Ile-Cys-Tyr-Glu-Lys-^DPro-Pip-)],β-Arrestin IC50,161 nM
B3,β-Arrestin IC50,109 nM
cyclo(YHKCHG[d(cisHyp)]WTICYEK[dP]P) (disulfide 4-11) [cyclo(-Tyr-His-Lys-Cys-His-Gly-^DPro((4R)OH)-Trp-Thr-Ile-Cys-Tyr-Glu-Lys-^DPro-Pro-)],β-Arrestin IC50,485 nM
B4,β-Arrestin IC50,82 nM
B5,β-Arrestin IC50,189 nM
B6,β-Arrestin IC50,50 nM
cyclo(YHKCHG[dP]WTICYEK[dP][Pro(4S-NH2)]) (disulfide 4-11) [cyclo(-Tyr-His-Lys-Cys-His-Gly-^DPro-Trp-Thr-Ile-Cys-Tyr-Glu-Lys-^DPro-Pro((4S)NH2)-)],β-Arrestin IC50,530 nM
cyclo(YHKCHG[dP]WTICYEK[dP][Tic]) (disulfide 4-11) [cyclo(-Tyr-His-Lys-Cys-His-Gly-^DPro-Trp-Thr-Ile-Cys-Tyr-Glu-Lys-^DPro-Tic-)],β-Arrestin IC50,115 nM
B7,β-Arrestin IC50,188 nM
cyclo(YHKCHG[dP]WTICYEK[dP][Oic]) (disulfide 4-11) [cyclo(-Tyr-His-Lys-Cys-His-Gly-^DPro-Trp-Thr-Ile-Cys-Tyr-Glu-Lys-^DPro-Oic-)],β-Arrestin IC50,267 nM
B8,β-Arrestin IC50,232 nM
cyclo(YHKCHG[dP]WTICYEK[dP][Hyp]) (disulfide 4-11) [cyclo(-Tyr-His-Lys-Cys-His-Gly-^DPro-Trp-Thr-Ile-Cys-Tyr-Glu-Lys-^DPro-Pro((4R)OH)-)],β-Arrestin IC50,376 nM
B9,β-Arrestin IC50,54 nM

# From patent US9957297B2, “Template-fixed peptidomimetics as inhibitors of FPR1” (POLYPHOR AG, priority 2011, dated 2018)
